According to paper PMC11543927, “Subtleties in Clathrin heavy chain binding boxes provide selectivity among adaptor proteins of budding yeast” (Nature Communications, 2024):

Experiments:
[1] = tested on: Abp1-mTurquoise2 at endocytic sites; experiment: Lifetime TIRF microscopy, Abp1+ / Abp1- endocytic events of Ent1/Ent2-mNeonGreen; type: cell-based, Saccharomyces cerevisiae; conditions: Supp. Figure 12; Ent1-mNeonGreen in yeast strains with Chc WT or box mutants (Cla, Cla + Arr, Cla + W); Type ABP+; average of single points
Method: To determine the effect of mutating the CHC-NTD Clathrin, Arrestin and W-boxes in how endocytosis progresses, cells tagged with Ent1/2p-mNeonGreen, Chc-mScarlet and Abp1-mTurquoise2 were used. Yeast cells previously described were grown overnight at 30 °C with shaking in a 24-well plate using LD(=low-fluorescence SD)-Trp^-, Leu^- medium (yeast nitrogen base without amino acids supplemented with the corresponding DropOut media, Foredium, CYN402). Cells were diluted in fresh medium with a starting OD600nm of 0.1 and allowed to grow at 30 °C with shaking for several hours (4-6hs) until they reached log phase (OD600nm 0.6-1.2). Micro slide 8-well glass bottom plates (Catalog 80807, Ibidi, Gräfelfing, Germany) were treated with 50 µL of a 1 mg/ml concanavalin A (prepared in 10 mM sodium phosphate buffer pH 6, 10 mM CaCl2,1 mM MnCl2, 0.01% NaN3, Catalog C2010, Sigma Aldrich) solution, incubated for 5 min and then washed twice with 50 µL of fresh medium. 50 µL of cell suspension was applied, incubated for 5 min and removed. Then each well was washed twice with 50 µL of fresh medium. Finally, 50 µL of fresh medium was added. […]

[2] = target: T1, Clathrin heavy chain fused to mScarlet (Chc-mScarlet), wild type (Saccharomyces cerevisiae, UniProt P22137 1-1653); experiment: FRET or BRET; acceptor photobleaching FRET in living yeast cells at endocytic patches stalled with Latrunculin A, donor mNeonGreen on Ent1/Ent2, acceptor mScarlet on Chc, 21 °C; trimmed mean FRET efficiency; conditions: partners not purified
T1 construct: Clathrin heavy chain, Saccharomyces cerevisiae, the ORF of CHC1 fused in the 3' with mScarlet; also called Chc1-mScarlet; ScCHC-mScarlet; not shown: mScarlet, C-terminal, kept
T1 sequence (P22137 whole entry, the tested form may be a part): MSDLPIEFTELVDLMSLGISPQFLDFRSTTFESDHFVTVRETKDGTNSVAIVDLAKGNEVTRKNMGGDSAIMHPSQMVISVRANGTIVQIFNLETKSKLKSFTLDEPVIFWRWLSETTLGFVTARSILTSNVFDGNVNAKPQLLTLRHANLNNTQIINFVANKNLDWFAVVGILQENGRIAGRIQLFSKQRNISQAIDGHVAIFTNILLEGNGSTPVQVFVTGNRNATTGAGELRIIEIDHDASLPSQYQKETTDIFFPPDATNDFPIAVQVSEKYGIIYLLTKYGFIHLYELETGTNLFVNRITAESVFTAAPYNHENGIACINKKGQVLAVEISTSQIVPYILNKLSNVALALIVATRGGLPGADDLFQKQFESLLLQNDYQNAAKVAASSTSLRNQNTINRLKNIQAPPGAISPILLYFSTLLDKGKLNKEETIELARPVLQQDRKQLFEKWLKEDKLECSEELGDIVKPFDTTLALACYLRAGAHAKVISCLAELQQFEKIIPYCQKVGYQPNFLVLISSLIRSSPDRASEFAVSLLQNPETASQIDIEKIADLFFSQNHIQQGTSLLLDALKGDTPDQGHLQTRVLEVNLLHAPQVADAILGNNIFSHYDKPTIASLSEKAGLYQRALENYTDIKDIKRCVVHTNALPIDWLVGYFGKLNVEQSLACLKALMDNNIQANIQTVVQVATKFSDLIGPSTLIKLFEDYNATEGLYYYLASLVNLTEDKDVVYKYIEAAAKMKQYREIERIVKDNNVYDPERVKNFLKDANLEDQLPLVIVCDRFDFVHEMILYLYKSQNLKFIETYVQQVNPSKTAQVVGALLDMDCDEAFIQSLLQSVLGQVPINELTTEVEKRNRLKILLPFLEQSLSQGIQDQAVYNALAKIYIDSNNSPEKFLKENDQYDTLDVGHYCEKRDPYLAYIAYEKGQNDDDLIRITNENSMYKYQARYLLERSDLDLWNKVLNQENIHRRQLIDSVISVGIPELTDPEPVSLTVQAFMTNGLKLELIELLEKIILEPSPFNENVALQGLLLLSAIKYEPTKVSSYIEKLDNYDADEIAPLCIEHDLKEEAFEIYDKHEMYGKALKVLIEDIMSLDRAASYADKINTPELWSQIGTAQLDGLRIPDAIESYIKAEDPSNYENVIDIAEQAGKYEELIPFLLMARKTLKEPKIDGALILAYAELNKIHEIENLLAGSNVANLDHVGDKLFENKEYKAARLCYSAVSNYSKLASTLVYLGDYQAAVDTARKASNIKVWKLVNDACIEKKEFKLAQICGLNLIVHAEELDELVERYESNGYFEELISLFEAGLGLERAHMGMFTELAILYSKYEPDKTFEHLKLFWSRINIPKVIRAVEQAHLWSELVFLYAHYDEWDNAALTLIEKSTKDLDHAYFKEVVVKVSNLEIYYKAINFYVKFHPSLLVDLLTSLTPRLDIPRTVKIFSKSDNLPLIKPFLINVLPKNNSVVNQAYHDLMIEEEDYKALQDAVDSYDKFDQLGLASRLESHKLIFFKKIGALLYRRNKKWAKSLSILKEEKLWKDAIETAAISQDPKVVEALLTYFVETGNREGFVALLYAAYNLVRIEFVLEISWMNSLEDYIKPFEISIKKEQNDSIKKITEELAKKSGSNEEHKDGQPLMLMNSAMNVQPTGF

[3] = target: T2, Chc-mScarlet Clathrin box mutant (K63E, I87D, Q89A, K98E) (Saccharomyces cerevisiae, UniProt P22137 1-1653, K63E | I87D | Q89A | K98E); experiment: as above; conditions: partners not purified
T2 construct: Clathrin heavy chain, Saccharomyces cerevisiae, the ORF of CHC1 fused in the 3' with mScarlet, Clathrin box mutant; also called Cla mutant; source: S. cerevisiae MK100, mutated plasmid pRS315-5'UTR CHC-mScarlet, endogenous CHC1 knocked out, in living cells; not shown: mScarlet, C-terminal, kept
T2 sequence (P22137 whole entry K63E/I87D/Q89A/K98E, the tested form may be a part): as the sequence (P22137 whole entry, the tested form may be a part) above, with K63E, I87D, Q89A, K98E counted along it

[4] = target: T3, Chc-mScarlet Clathrin and Arrestin box mutant (Cla+Arr) (Saccharomyces cerevisiae, UniProt P22137 1-1653, K63E | I87D | Q89A | K98E | Q195A | I197T | K251E); experiment: as above; conditions: partners not purified
T3 construct: Clathrin heavy chain, Saccharomyces cerevisiae, the ORF of CHC1 fused in the 3' with mScarlet, Clathrin and Arrestin box mutant; source: S. cerevisiae MK100, mutated plasmid pRS315-5'UTR CHC-mScarlet, endogenous CHC1 knocked out, in living cells; not shown: mScarlet, C-terminal, kept
T3 sequence (P22137 whole entry K63E/I87D/Q89A/K98E/Q195A/I197T/K251E, the tested form may be a part): as the sequence (P22137 whole entry, the tested form may be a part) above, with K63E, I87D, Q89A, K98E, Q195A, I197T, K251E counted along it

[5] = target: T4, Chc-mScarlet Clathrin and W box mutant (Cla+W) (Saccharomyces cerevisiae, UniProt P22137 1-1653, F26A | K63E | I87D | Q89A | K98E | Q155A); experiment: as above; conditions: partners not purified
T4 construct: Clathrin heavy chain, Saccharomyces cerevisiae, the ORF of CHC1 fused in the 3' with mScarlet, Clathrin and W box mutant; source: S. cerevisiae MK100, mutated plasmid pRS315-5'UTR CHC-mScarlet, endogenous CHC1 knocked out, in living cells; not shown: mScarlet, C-terminal, kept
T4 sequence (P22137 whole entry F26A/K63E/I87D/Q89A/K98E/Q155A, the tested form may be a part): as the sequence (P22137 whole entry, the tested form may be a part) above, with F26A, K63E, I87D, Q89A, K98E, Q155A counted along it

[6] = target: T5, Chc-mScarlet Clathrin, Arrestin and W box mutant (Cla+Arr+W) (Saccharomyces cerevisiae, UniProt P22137 1-1653, F26A | K63E | I87D | Q89A | K98E | Q155A | Q195A | I197T | K251E); experiment: as above; conditions: partners not purified
T5 construct: Clathrin heavy chain, Saccharomyces cerevisiae, the ORF of CHC1 fused in the 3' with mScarlet, Clathrin, Arrestin and W box mutant; also called triple mutant; source: S. cerevisiae MK100, mutated plasmid pRS315-5'UTR CHC-mScarlet, endogenous CHC1 knocked out, in living cells; not shown: mScarlet, C-terminal, kept
T5 sequence (P22137 whole entry F26A/K63E/I87D/Q89A/K98E/Q155A/Q195A/I197T/K251E, the tested form may be a part): as the sequence (P22137 whole entry, the tested form may be a part) above, with F26A, K63E, I87D, Q89A, K98E, Q155A, Q195A, I197T, K251E counted along it

B1: Ent1 endogenously tagged with mNeonGreen (Ent1-mNeonGreen) (natural protein, UniProt Q12518 1-454, looked up)
chain: MSKQFVRSAKNLVKGYSSTQVLVRNATSNDNHQVSKDSLIELAEKSYDSADFFEIMDMLDKRLNDKGKYWRHIAKALTVIDYLIRFGSENCVLWCRENLYIIKTLKEFRHEDDEGIDQGQIVRVKAKELTALLSDDERLNEERNMNIKGRNRKGRRRRGTGRSDENDDDLQRAISASRLTAEEDERRRKQDEDYETALQLSKEEEELKRLQDLQRMQQQQGQQQLQQPMYYDIFGNPITPEEYAQFQLQQQQQQQQQQLQQQPMYYDVFGNPITPEELAQFQQQQQLQEQQYLASMQQQQQAMSNNPFAKSEQSSSSPKRNQLVAASSPQQLQQQKQQEPLIQNRTGNQSMTDKYSKLNELLATGTGIDTFGNVGEARIPAQHTKTGTFINSQGTGYRQVSDDPNHNPFLNSQYTGLPSTSVVPTQTGYGFGNQSQQQSQNNGSNNRGYTLIDL
notes: epsin Ent1, Saccharomyces cerevisiae, endogenous locus tagged with mNeonGreen; also called Ent1p; source: endogenously tagged, S. cerevisiae MK100, in living cells
Frequency of ABP+ (Abp1-positive) endocytic events, Average [1]: 33.3 | FRET efficiency [2]: ~8% | FRET efficiency [3]: ~5% | FRET efficiency [4]: 5.25% | FRET efficiency [5]: 5.93% | FRET efficiency [6]: 4.66%
